Measured values reported in patent publication US20070054271A1.

Assays:
[1] = target: putative CXCL14 receptor (CXCL14-binding cell surface protein(s)) on breast epithelial and breast cancer cells; experiment: Scatchard analysis of AP-CXCL14 binding to MDA-MB-231 cells in suspension, bound AP activity; high affinity site
[2] = target: putative CXCL14 receptor (CXCL14-binding cell surface protein(s)) on breast epithelial and breast cancer cells; experiment: Scatchard analysis of AP-CXCL14 binding to MDA-MB-231 cells in suspension, bound AP activity; low affinity site

alkaline phosphatase-CXCL14 (AP-CXCL14) fusion protein, AP located N-terminal of the CXCL14 (from UniProt O95715 35-111) (ligand)
Kd [1]: 61 nM
Kd [2]: 567 nM
